Laboratory results from patent US20220042033A1, “COMPOSITION AND METHOD FOR CONFERRING AND/OR ENHANCING TOLERANCE AGAINST HERBICIDES BY USING VARIANTS OF PPO” (FarmHannong Co., Ltd., priority 2017, published 2022).
Where a chain is given by its changes, count along the chain named. Names may count otherwise.

B1: A215L: ApPPO1 (SEQ ID NO: 1) variant (protein)
chain: MPFTHLKPLNRLLGSPRARHPHVAPQAVSVTNTSTTRPGGRSSAPGIPGDAEYDVVIVGAGISGLTTAQALAKQYSDAVPRLLVTEARDCVGGNIITRRDGGYQWEEGPNSFQPSDAVLRAAVDAGVADRLVLGDPKAPRYVYWGGRLRATPSGPDVLTFDLLSLWGKLRAGLGAAGFKAPLPEREESVKEFVTRNLGEEVFQRLIEPFCSGVYLGDPAKLSMKAAFGKVYDLEKGGGSIVGGVLALMKARKQKPPEPRPADLPPKPKGQTVGSFDKGLVTLPSAIAEELGDRVVTGWKLESIDRSGDRFQLTYDTPQGRKKVSARSVALTVPAYTAASLLESRFPKLGKALSSIYYPPVASVALSYPETAILPERLGSDGHLAGFGQLHPRTQGVTTLGTIYASSLFPGRVPEGKVLLLSYFGGATNTRVATMPHGEIVSQVDKDLRKMLIRSDAESPHTVNVTVWPRAIPQFNVGHTDLIQEAKDDLASQGWQGLHLGGNYVAGVALGKCMEAGYKQAAELASHVKSLAT
modifications: Synthetic (Protoporphyrinogen IX oxidase (ApPPO1) of Auxenochlorella protothecoides)
B2: R140A: ApPPO1 (SEQ ID NO: 1) variant (protein)
chain: B1 chain with R140A, L215A
modifications: Synthetic (Protoporphyrinogen IX oxidase (ApPPO1) of Auxenochlorella protothecoides)
B3: R140A + Y422M: ApPPO1 (SEQ ID NO: 1) variant (protein)
chain: B1 chain with R140A, L215A, Y422M
modifications: Synthetic (Protoporphyrinogen IX oxidase (ApPPO1) of Auxenochlorella protothecoides)
B4: V213C + Y422M: ApPPO1 (SEQ ID NO: 1) variant (protein)
chain: B1 chain with V213C, L215A, Y422M
modifications: Synthetic (Protoporphyrinogen IX oxidase (ApPPO1) of Auxenochlorella protothecoides)
B5: I402T + Y422M: ApPPO1 (SEQ ID NO: 1) variant (protein)
chain: B1 chain with L215A, I402T, Y422M
modifications: Synthetic (Protoporphyrinogen IX oxidase (ApPPO1) of Auxenochlorella protothecoides)
B6: L389T + Y422M: ApPPO1 (SEQ ID NO: 1) variant (protein)
chain: B1 chain with L215A, L389T, Y422M
modifications: Synthetic (Protoporphyrinogen IX oxidase (ApPPO1) of Auxenochlorella protothecoides)
B7: A215C + Y422M: ApPPO1 (SEQ ID NO: 1) variant (protein)
chain: B1 chain with L215C, Y422M
modifications: Synthetic (Protoporphyrinogen IX oxidase (ApPPO1) of Auxenochlorella protothecoides)
B8: A215L + Y422M: ApPPO1 (SEQ ID NO: 1) variant (protein)
chain: B1 chain with Y422M
modifications: Synthetic (Protoporphyrinogen IX oxidase (ApPPO1) of Auxenochlorella protothecoides)
B9: V360I + Y422I: ApPPO1 (SEQ ID NO: 1) variant (protein)
chain: B1 chain with L215A, V360I, Y422I
modifications: Synthetic (Protoporphyrinogen IX oxidase (ApPPO1) of Auxenochlorella protothecoides)
B10: S362V + Y422I: ApPPO1 (SEQ ID NO: 1) variant (protein)
chain: B1 chain with L215A, S362V, Y422I
modifications: Synthetic (Protoporphyrinogen IX oxidase (ApPPO1) of Auxenochlorella protothecoides)

How the values were obtained:
ApPPO1 [1] = assay: Herbicide tolerance test of ApPPO1 wild type and variants in PPO-deficient E. coli BT3(ΔPPO), growth on herbicide-containing LB agar; format: cell-based, Auxenochlorella protothecoides; settings: relative to ApPPO1 WT; for Herbicide tolerance, tiafenacil: up to 200 μM (FIGS. 7-12)
Protocol: Then, the extent of tolerance was evaluated.

ApPPO1 [2] = assay: PPO enzyme activity of purified MBP-fused ApPPO1 wild type and variants; format: biochemical, Auxenochlorella protothecoides; settings: PPO enzyme activity relative to ApPPO1 wild type; MBP-fused protein
Protocol: Thus, PPO proteins of wild type and variants were expressed as fused to MBP and were used for experiments.
The following process for purification of PPO protein was performed in a 4° C. cold room. […] The column was washed with 3 column volumes of buffer and the presence of protein in the washing solution was examined. When the protein was no longer detected, the washing procedure was terminated. Then, the MBP-PPO protein was eluted with approximately 2 column volumes of buffer containing 20 mM maltose. The protein concentration of each eluent was determined and the elution was stopped when the protein was no longer detected. Ten microliter of each fraction was investigated for protein quantification and SDS-PAGE analysis. The highly pure fractions of PPO protein variants were used for the enzyme assay.
Since protoporphyrinogen IX, a substrate of PPO protein, was not commercially available, it was chemically synthesized in the laboratory. Overall process was performed in dark under nitrogen stream. […] of protoporphyrin IX was dissolved in 20 ml of 20% (v/v) EtOH, and stirred under dark condition for 30 minutes. The obtained protoporphyrin IX solution was put into a 15 ml screw tube in an amount of 800 μl, and flushed with nitrogen gas for 5 minutes. To this, 1.5 g of sodium amalgam was added and vigorously shaken for 2 minutes. The lid was opened to exhaust hydrogen gas in the tube. Thereafter, the lid was closed and incubated for 3 minutes. The protoporphyrinogen IX solution was filtered using syringe and cellulose membrane filter. To 600 μl of the obtained protoporphyrinogen IX solution, approximately 300 μl of 2M MOPS [3-(N-morpholino) propanesulfonic acid] was added to adjust pH to 8.0. To determine the enzyme activity of PPO protein, a reaction mixture was prepared with the following composition (based on 10 ml): 50 mM Tris-Cl (pH 8.0); 50 mM NaCl; 0.04% (v/v) Tween 20; 40 mM glucose (0.072 g); 5 units glucose oxidase (16.6 mg); and 10 units catalase (1 μl).
Hundred and eighty microliters of a reaction mixture […] were placed in 96 well plates and 20 μl of purified PPO proteins were added. After 50 μl of the mineral oil was layered, the reaction was initiated by adding the substrate, protoporphyrinogen IX solution, to a final concentration of 50 μM. The reaction proceeded at room temperature for 30 min and the fluorescence of protoporphyrin IX was measured using Microplate reader (Sense, Hidex) (excitation: 405 nm; emission: 633 nm). To calculate the PPO enzyme activity, the protoporphyrinogen IX solution was kept open in the air overnight to oxidize the solution. To this, 2.7 N HCl was added, and the absorbance at 408 nm was measured. A standard curve was generated using standard protoporphyrin IX, and PPO activity was measured by calibration of protoporphyrin IX using the standard curve of protoporphyrin IX.
Activities of variants were presented relatively compared to that of wild type.

[3] = dark, up to 100 μM (FIGS. 7-12)
[4] = dark, up to 400 μM (FIGS. 7-12)

| Molecule | Activity (%) (ApPPO1 [2]) | Herbicide tolerance, flumioxazin (ApPPO1 [1]; [3]) | Herbicide tolerance, tiafenacil (ApPPO1 [1]; dark) | Herbicide tolerance, sulfentrazone (ApPPO1 [1]; [4]) | other results |
| --- | --- | --- | --- | --- | --- |
| B1 | 76 | – | – | – | Herbicide tolerance, pentoxazone (ApPPO1 [1]; light, up to 10 μM (FIG. 5)): ++ (10-99 fold higher tolerance); Herbicide tolerance, pyraflufenethyl (ApPPO1 [1]; light, up to 10 μM (FIG. 6)): +++ (100-999 fold higher tolerance); Herbicide tolerance, sulfentrazone (ApPPO1 [1]; light, up to 25 μM (FIG. 3)): +++ (100-999 fold higher tolerance); Herbicide tolerance, Fomesafen (ApPPO1 [1]; light, up to 25 μM (FIG. 4)): +++ (100-999 fold higher tolerance); Herbicide tolerance, acifluorfen (ApPPO1 [1]; light, up to 25 μM (FIG. 4)): +++ (100-999 fold higher tolerance); Herbicide tolerance, saflufenacil (ApPPO1 [1]; light, up to 100 μM (FIG. 2)): ++++ (1,000-9,999 fold higher tolerance); Herbicide tolerance, flumioxazin (ApPPO1 [1]; light, up to 200 μM (FIG. 3)): ++++ (1,000-9,999 fold higher tolerance) |
| B2 | 88 | – | – | – | – |
| B3 | 29 | ++++ (1,000-9,999 fold higher tolerance) | ++++ (1,000-9,999 fold higher tolerance) | ++++ (1,000-9,999 fold higher tolerance) | – |
| B4 | 29 | +++ (100-999 fold higher tolerance) | +++++ (more than 10,000 fold higher tolerance) | ++ (10-99 fold higher tolerance) | – |
| B5 | 21 | – | – | – | – |
| B6 | 15 | – | – | – | – |
| B7 | 58 | +++++ (more than 10,000 fold higher tolerance) | +++++ (more than 10,000 fold higher tolerance) | ++++ (1,000-9,999 fold higher tolerance) | – |
| B8 | 34 | +++++ (more than 10,000 fold higher tolerance) | +++++ (more than 10,000 fold higher tolerance) | ++++ (1,000-9,999 fold higher tolerance) | – |
| B9 | 16 | – | – | – | – |
| B10 | 21 | – | – | – | – |
